From patent EP4610269A1, “UROKINASE PLASMINOGEN ACTIVATOR SURFACE RECEPTOR (UPAR) LIGANDS FOR DIAGNOSTIC OR THERAPEUTIC USE” (3B Pharmaceuticals GmbH, priority 2024, dated 2025)
Bridges are numbered along the chain shown (N, C = ends). [ ]: non-standard residue; d: D form. The star is where a group is joined. GdDOTA = Gd(III) DOTA conjugate, O=C([O-])CN1CCN(CC(=O)[O-])CCN(CC(=O)*)CCN(CC(=O)[O-])CC1.[Gd+3]; DOTA(In) = O=C1CN2CCN3CCN(CC(=O)*)CCN(CC2)CC(=O)[O][In]([O]1)[O]C(=O)C3; DOTA(Lu) = O=C1CN2CCN3CCN(CC(=O)*)CCN(CC2)CC(=O)[O][Lu]([O]1)[O]C(=O)C3; CH3O(CH2CH2O)11CH2CH2CO = COCCOCCOCCOCCOCCOCCOCCOCCOCCOCCOCCOCCC(=O)*; nBuCAyl = n-butyl-carbamoyl (N-terminal blocking group), CCCCNC(=O)*; Lys(Me3) = C[N+](C)(C)CCCC[C@H](N)C(=O)O; Hyp = O=C(O)[C@@H]1C[C@@H](O)CN1; hArg = N=C(N)NCCCC[C@H](N)C(=O)O; LaDOTA = La(III) DOTA conjugate; Pentanoyl(4-Me) = CC(C)CCC(=O)*; Cit = NC(=O)NCCC[C@H](N)C(=O)O; Orn = NCCC[C@H](N)C(=O)O; Api = NC1(C(=O)O)CCNCC1; Nva = CCC[C@H](N)C(=O)O; Pentanoyl = CCCCC(=O)*

Tests used:
[1] = target: T1, uPAR-expressing HEC-265 human endometrial adenocarcinoma cells (Homo sapiens, UniProt Q03405); assay: Competitive FACS binding assay; conditions: pIC50 category of FACS binding
T1 construct: Cell surface uPAR-expressing HEC-265 human endometrial adenocarcinoma cells; host or cells: HEC-265
Procedure, shortened: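 Competitive displacement of a 10 nM biotinylated peptide from HEC-265 cells (1 h, 4 °C, PBS/1% BSA), detected via APC-streptavidin by flow cytometry. pIC50 from four-parameter logistic fit of median fluorescence versus concentration.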

human uPAR (uPAR-Fc) = target: T2, human uPAR (uPAR-Fc) (Homo sapiens, UniProt Q03405); assay: Surface plasmon resonance (SPR) assay, single cycle kinetics; type: binding; conditions: pKD category for uPAR SPR activity assay, uPAR-Fc on Protein A-Chip, 25°C
T2 construct: comprising amino acids Leu23-Arg303 according to UniProt entry Q03405.1; purchased R&D Systems 10378-UK-100
Procedure, shortened: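 uPAR-Fc (Leu23-Arg303 extracellular domains, human IgG1 Fc) captured on Protein A chip to ~2000 RU; single-cycle kinetics at 25°C in HEPES running buffer pH 7.4 with 0.1% DMSO. KD from double-referenced sensorgrams fitted to 1:1 Langmuir model, reported as pKD.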

[2] = Plasma stability assay (mouse plasma); type: in vitro ADME; conditions: mouse plasma (sodium citrate), 37°C, LC-MS quantification
Procedure: In order to determine the stability of selected compounds of the invention in human and mouse plasma, a plasma stability assay was carried out. Such plasma stability assay measures degradation of compounds of the present invention in blood plasma. This is an important characteristic of a compound as compounds, with the exception of pro-drugs, which rapidly degrade in plasma, generally show poor in vivo efficacy. […] The stability is sufficient for the diagnostic, therapeutic and theragnostic use of these compounds according to the present invention.
The plasma stability samples were prepared by spiking 50 µl plasma aliquots (all sodium citrate 3.7%) with 1 µl of a 0.5 mM compound stock solution in DMSO. After vortexing the samples were incubated in a Thermomixer at 37°C for 0 and 6 hours. After incubation the samples were stored on ice until further treatment. All samples were prepared in duplicates.
A suitable internal standard was added to each sample (1 µl of a 0.5 mM stock solution in DMSO). Protein precipitation was performed using two different methods depending on the compound conditions as indicated in Table 13. • A) 250 µl of acetonitrile containing 1% trifluoroacetic acid was added. After incubation at room temperature for 30 min the precipitate was separated by centrifugation and 150 µl of the supernatant was diluted with 150 µl of 1% aqueous formic acid. • B) 150 µl of a zinc sulphate precipitation agent containing 78% 0.1 M zinc sulphate and 22% acetonitrile was added. After incubation at room temperature for 30 min the precipitate was separated by centrifugation. To 100 µl of the supernatant 10 µl of 1% formic acid was added followed by further incubation at 60°C for 10 min to complete the formation of the zinc chelate, if the compound contains a free DOTA moiety.
The determination of the analyte in the clean sample solutions was performed on an Agilent 1290 UHPLC system coupled to an Agilent 6530 Q-TOF mass spectrometer. The chromatographic separation was carried out on a Phenomenex BioZen XB-C18 HPLC column (50 x 2 mm, 1.7 µm particle size).
Two different elution gradients were applied using a mixture of 0.1% formic acid in water as eluent A and acetonitrile as eluent B: • A) 2% B to 41% in 7 min, 800 µl/min, 40°C. • B) 5% B to 50% B in 6 min, 800 µL/min, 40°C.
Mass spectrometric detection was performed in positive ion ESI mode by scanning the mass range from m/z 50 to 3000 with a sampling rate of 2 / sec.
From the mass spectrometric raw data the ion currents for the double or triple charged monoisotopic signal was extracted for both, the compound and the internal standard.
Quantitation was performed by external matrix calibration with internal standard using the integrated analyte signals.
Additionally, recovery was determined by spiking a pure plasma sample that only contained the internal standard after treatment with a certain amount of the compound.
Carry-over was evaluated by analysis of a blank sample (20% acetonitrile) after the highest calibration sample.
The result is stated as "% intact compound remaining after 6 h incubation" and means that from the amount of material at the start of the experiment the stated percentage is detected as unchanged material at the end of the experiment by LC-MS quantification. Since all compounds are more than 50% intact after 6 h they are considered as stable enough for diagnostic and therapeutic applications. Table 13: Results of the plasma stability assay

T2 sequence (Q03405 23-303): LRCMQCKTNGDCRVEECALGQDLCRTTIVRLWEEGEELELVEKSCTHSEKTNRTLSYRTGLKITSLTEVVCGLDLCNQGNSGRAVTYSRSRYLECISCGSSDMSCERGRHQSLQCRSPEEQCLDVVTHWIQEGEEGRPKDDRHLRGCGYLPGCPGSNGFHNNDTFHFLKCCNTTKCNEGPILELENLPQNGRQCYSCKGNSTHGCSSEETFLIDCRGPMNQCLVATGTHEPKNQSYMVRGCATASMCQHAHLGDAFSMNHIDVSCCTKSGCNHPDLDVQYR
T1 sequence (Q03405 23-335): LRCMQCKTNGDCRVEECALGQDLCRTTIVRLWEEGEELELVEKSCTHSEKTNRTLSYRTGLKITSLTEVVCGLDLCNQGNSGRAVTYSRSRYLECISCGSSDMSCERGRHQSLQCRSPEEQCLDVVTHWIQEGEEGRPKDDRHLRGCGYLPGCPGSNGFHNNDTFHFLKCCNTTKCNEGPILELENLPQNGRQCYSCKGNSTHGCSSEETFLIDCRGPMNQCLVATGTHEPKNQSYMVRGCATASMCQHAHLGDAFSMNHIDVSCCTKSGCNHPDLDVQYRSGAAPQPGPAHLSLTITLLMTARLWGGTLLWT

Row | Substance | pIC50 CAT [1] | pKD CAT (human uPAR (uPAR-Fc); single cycle kinetics) | pKD CAT (human uPAR (uPAR-Fc)) | % intact compound remaining after 6h incubation Mouse plasma [2] [%]
1 | Pent-[Cys-Har-Lys(GdDOTA)-Tyr-Phe-Pro-Hyp-Ile-Nva-Cys]-NH2 (Pentanoyl-C[hArg]K(GdDOTA)YFP[Hyp]I[Nva]C-NH2; disulfide 1-10; not fully specified; also: Gd(III) complexed by DOTA) [UPAR-376] | A (pIC50 values ≥8.0) | A (pKD values ≥ 8.8) |  | 
2 | iHex-[Cys-Arg-Gln-Tyr-Phe-Pro-Apc(GdDOTA)-Ile-Leu-Cys]-NH2 ({Pentanoyl(4-Me)}-CRQYFP[Api](GdDOTA)ILC-NH2; disulfide 1-10 (inferred); not fully specified) [UPAR-457] | A (pIC50 values ≥8.0) |  |  | 64
3 | iHex-[Cys-Lys(LuDOTA)-Gln-Tyr-Phe-Pro-ala-Ile-Leu-Cys]-NH2 ({Pentanoyl(4-Me)}-CK(DOTA(Lu))QYFP[dA]ILC-NH2; disulfide 1-10 (inferred); not fully specified) [UPAR-408] | A (pIC50 values ≥8.0) |  |  | 75

Further lines, with some results ahead:

Row | pIC50 CAT [1] | pKD CAT (human uPAR (uPAR-Fc); single cycle kinetics) | pKD CAT (human uPAR (uPAR-Fc)) | Substance | % intact compound remaining after 6h incubation Mouse plasma [2] [%]
4 | A (pIC50 values ≥8.0) |  | A (pKD values ≥ 8.8) | Pent-[Cys-KMe3-Lys(LaDOTA)-Tyr-Phe-Pro-Hyp-Ile-Nva-Cys]-NH2 (Pentanoyl-C[Lys(Me3)]K(LaDOTA)YFP[Hyp]I[Nva]C-NH2; disulfide 1-10; not fully specified; also: La(III) complexed by DOTA) [UPAR-183] | 
5 | A (pIC50 values ≥8.0) |  | A (pKD values ≥ 8.8) | Pent-[Cys-Orn(mPEG12)-Lys(InDOTA)-Tyr-Phe-Pro-Hyp-Ile-Nva-Cys]-NH2 (Pentanoyl-C[Orn](CH3O(CH2CH2O)11CH2CH2CO)K(DOTA(In))YFP[Hyp]I[Nva]C-NH2; disulfide 1-10; not fully specified; also: In(III) complexed by DOTA) [UPAR-311] | 
6 | A (pIC50 values ≥8.0) | A (pKD values ≥ 8.8) |  | Succinyl-Nva-[Cys-Cit-Lys(GdDOTA)-Tyr-Phe-Pro-Hyp-Ile-Nva-Cys]-NH2 [UPAR-460] | 
7 | A (pIC50 values ≥8.0) | A (pKD values ≥ 8.8) |  | nBuCAyl-[Cys-Cit-Lys(LuDOTA)-Tyr-Phe-Pro-Hyp-Ile-Nva-Cys]-NH2 (nBuCAyl-C[Cit]K(DOTA(Lu))YFP[Hyp]I[Nva]C-NH2; disulfide 1-10; also: Lu(III) chelated by DOTA on Lys3) [UPAR-464] | 
